Experiment [1] deals with human protein Axl (cellular form on the cell surface) (human) (UniProt P30530). The experiment is described as follows: cell-based or functional assay.
The target is the same in experiment [2]. The experiment is described as follows: flow cytometry, 9G4 labelling of untreated (No Ab) SN12C cells. Background: Flow cytometry measures light scatter and fluorescence of single cells or particles in a stream.
The target is the same in experiment [3]. Briefly: flow cytometry, 9G4 labelling of SN12C cells treated 24 h with 9G4.
For experiment [4] the target is unchanged. The experiment is described as follows: Qifikit quantitative flow cytometry on PC3 cells.
The target is the same in experiment [5]. The experiment is described as follows: Qifikit quantitative flow cytometry on A172 cells.
For experiment [6] the target is unchanged. Briefly: Qifikit quantitative flow cytometry on A431 cells.
For experiment [7] the target is unchanged. Briefly: Qifikit quantitative flow cytometry on MCF7 cells.
Experiment [8] shares this target. The experiment is described as follows: Qifikit quantitative flow cytometry on Panc1 cells.
The target is the same in experiment [9]. Briefly: Qifikit quantitative flow cytometry on SN12C cells.
Experiment [10] has the same target. Briefly: Qifikit quantitative flow cytometry on Calu-1 cells.
Experiment [11] shares this target. The experiment is described as follows: Qifikit quantitative flow cytometry on DU-145 cells.
Experiment [12] has the same target. The experiment is described as follows: Qifikit quantitative flow cytometry on NCI-H125 cells.
The target is the same in experiment [13]. The experiment is described as follows: Qifikit quantitative flow cytometry on NCI-H226 cells.
Experiment [14] shares this target. Briefly: Qifikit quantitative flow cytometry on MDA-MB-231 cells.
For experiment [15] the target is unchanged. The experiment is described as follows: Qifikit quantitative flow cytometry on MDA-MB-435S cells.
The target is the same in experiment [16]. Briefly: flow cytometry, MAB154 labelling of untreated (No Ab) SN12C cells.
For experiment [17], the target named is T1, human protein Axl (cellular form on the cell surface) (human, UniProt P30530 26-894).
T1 construct: also called Axl receptor; membrane Axl receptor
T1 sequence: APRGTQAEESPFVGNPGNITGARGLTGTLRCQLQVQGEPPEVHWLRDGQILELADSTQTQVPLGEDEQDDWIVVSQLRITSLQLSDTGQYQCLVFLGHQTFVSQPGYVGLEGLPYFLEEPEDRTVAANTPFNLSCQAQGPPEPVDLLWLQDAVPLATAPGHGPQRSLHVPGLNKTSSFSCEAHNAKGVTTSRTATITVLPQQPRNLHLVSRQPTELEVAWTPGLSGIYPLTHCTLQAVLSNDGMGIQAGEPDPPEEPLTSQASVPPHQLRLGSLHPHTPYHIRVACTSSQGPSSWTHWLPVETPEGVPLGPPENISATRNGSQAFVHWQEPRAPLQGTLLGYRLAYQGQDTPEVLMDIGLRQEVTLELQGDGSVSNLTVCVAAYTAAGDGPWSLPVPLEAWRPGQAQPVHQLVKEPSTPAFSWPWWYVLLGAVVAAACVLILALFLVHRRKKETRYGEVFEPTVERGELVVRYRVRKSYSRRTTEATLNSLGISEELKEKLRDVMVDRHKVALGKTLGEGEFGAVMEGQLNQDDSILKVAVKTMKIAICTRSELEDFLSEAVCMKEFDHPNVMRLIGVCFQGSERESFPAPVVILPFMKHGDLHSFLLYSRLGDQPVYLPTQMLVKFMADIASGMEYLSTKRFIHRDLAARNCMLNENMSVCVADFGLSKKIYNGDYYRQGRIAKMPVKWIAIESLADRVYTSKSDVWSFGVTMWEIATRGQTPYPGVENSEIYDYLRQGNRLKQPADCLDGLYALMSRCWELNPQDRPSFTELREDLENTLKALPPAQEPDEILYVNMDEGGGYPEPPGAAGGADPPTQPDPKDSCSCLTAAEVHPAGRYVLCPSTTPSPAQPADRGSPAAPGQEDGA
The experiment is described as follows: flow cytometry on SN12C cells, anti-human IgG Alexa488; table under the graph, unit from the axis Log [M]. How it is done: Cells were detached using trypsin and cell concentration was adjusted at 1×10⁶ cells/ml in FACS buffer. A volume of 100 μL of cell suspension was incubated with increasing concentrations of either isotype controls or anti-Axl antibodies for 20 min. at 4° C. Cells were then washed three times with FACS buffer and incubated for 20 min. more using either anti-mouse IgG Alexa488 secondary antibody or anti-human IgG Alexa488 secondary antibody at 4° C. in the dark. Cells were washed three times with FACS buffer and resuspended with 100 μl of FACS buffer before adding propidium iodide.

With “9G4 murine IgG1 isotype control antibody”, in experiment [1], the % remaining Axl, SN12C cells came out at 117% and the Δ (MFI No Ab 24 h - MFI Ab 24 h), SN12C cells was -2 MFI. The molecule further registered an MFI at T24 h in [2] of 11 MFI. The molecule further registered an MFI at T24 h in experiment [3] of 13 MFI.

Consider “MAB154 commercial anti-Axl antibody (R and D Systems, ref MAB154)”, for which the ABC (Qifikit) in experiment [4] was 8420 ABC; in [5], 52400 ABC; in [6], 3950 ABC; in experiment [7], 71 ABC; in experiment [8], 36800 ABC; in experiment [9], more than 100000 ABC. Also, the ABC (Qifikit) in experiment [10] was more than 100000 ABC; in [11], 55300 ABC; in experiment [12], 5540 ABC; in experiment [13] it was 32100 ABC; in experiment [14], 61200 ABC; in experiment [15], 17800 ABC. The same molecule had an antigen binding capacity (ABC) in experiment [9] of more than 100000 ABC. This molecule also had an MFI at T24 h in experiment [16] of 950 MFI.

B1: c1613F12 (chimeric 1613F12) (antibody, V domains shown)
VH: EVHLQQSGAELVKPGASVKLSCTASGFNIRDTYIHWVKQRPEQGLEWIGRLDPANGHTKYGPNFQGRATMTSDTSSNTAYLQLSSLTSEDTAVYYCARGAYYYGSSGLFYFDYWGQGTTLSVSS
VL: DVQITQSPSYLATSPGETITINCRASKSISKYLAWYQEKPGKTNKLLIYSGSTLQSGVPSRFSGSGSGTDFTLTISSLEPEDFAMYFCQQHHEYPLTFGAGTELELK
notes: Murine variable domains with human constant regions; also called chimeric form of the 1613F12
Usually EC50 stands for the concentration giving half of the maximal effect. A lower EC50 goes with higher potency in that assay. B1: the concentration for a half-maximal effect (EC50) in experiment [17] was found to be 1.81 nM.

The values are drawn from US20150037340A1 (PEIRRE FABRE MEDICAMENT, published 2015).
